Results on 167 variants are retold here after the Human Domainome abundance scans (Beltran et al. 2025).

First the molecules themselves.
B1: Apoptosis-associated speck-like protein containing a CARD, residues 114 to 194; numbered along this chain, Q9ULZ3 (parent)
chain: FIDQHRAALIARVTNVEWLLDALYGKVLTDEQYQAVRAEPTNPSKMRKLFSFTPAWNWTCKDLLLQALRESQSYLVEDLER

± gives the uncertainty stated by the source.

In the data set the parent is B1. Put plainly: abundance fitness (aPCA) (normalised: wild type 0, dead -1); higher = more abundant; growth selection in yeast, the domain comes from the species named. Conditions: Homo sapiens.
On to L9M, for which the abundance fitness was -0.563 ± 0.14.

For L9R, the abundance fitness was -0.925 ± 0.13.

Take L9P: the abundance fitness was -0.694 ± 0.14.

In the case of L9F, the abundance fitness is -0.763 ± 0.2.

In the case of L9I, the abundance fitness was -0.429 ± 0.12.

With L9Y, the abundance fitness is -0.644 ± 0.28.

Regarding Y24F, the abundance fitness was -0.594 ± 0.11.

As for V16R, the abundance fitness was -0.573 ± 0.057.

Consider V16D, for which the abundance fitness is -0.773 ± 0.11.

Consider V16A, for which the abundance fitness was -0.794 ± 0.1.

As to V16H, the abundance fitness is -0.821 ± 0.22.

With V16I, the abundance fitness was -0.464 ± 0.12.

As to V16C, the abundance fitness is -0.342 ± 0.16.

On to V16L, for which the abundance fitness was -0.484 ± 0.078.

Consider F52S, for which the abundance fitness was -0.948 ± 0.12.

F52M: the abundance fitness is -0.454 ± 0.24.

Consider F52W, for which the abundance fitness was -0.696 ± 0.087.

Turning to F52P, the abundance fitness was -0.979 ± 0.19.

Regarding F52N, the abundance fitness is -0.836 ± 0.45.

V36K: the abundance fitness was -0.325 ± 0.12.

On to V36A, for which the abundance fitness was -0.46 ± 0.08.

With V36E, the abundance fitness is -0.801 ± 0.12.

As to Q72L, the abundance fitness was -0.633 ± 0.077.

As to Q72H, the abundance fitness worked out at 0.009 ± 0.096.

On to Q72T, for which the abundance fitness was -0.659 ± 0.11.

Regarding Q72G, the abundance fitness was -0.627 ± 0.066.

For Q72W, the abundance fitness is -0.615 ± 0.082.

On to W56K, for which the abundance fitness is -0.684 ± 0.22.

With W56Y, the abundance fitness is -1.01 ± 0.38.

As to W56Q, the abundance fitness was -0.598 ± 0.15.

Consider A67R, for which the abundance fitness was -0.622 ± 0.084.

With A67S, the abundance fitness was -0.544 ± 0.086.

Take A67C: the abundance fitness was -0.629 ± 0.13.

For the variant A67L, the abundance fitness came to 0.033 ± 0.051.

With A67T, the abundance fitness is -0.452 ± 0.12.

Consider P54T, for which the abundance fitness is 0 ± 0.069.

On to P54S, for which the abundance fitness came to 0.044 ± 0.06.

Regarding C60R, the abundance fitness was -0.265 ± 0.047.

Turning to C60T, the abundance fitness is 0.009 ± 0.051.

For C60V, the abundance fitness is -0.461 ± 0.059.

As to C60P, the abundance fitness was -0.625 ± 0.11.

Turning to C60D, the abundance fitness is 0.332 ± 0.12.

I10G: the abundance fitness was -0.74 ± 0.076.

As to I10R, the abundance fitness was -0.631 ± 0.064.

Regarding I10C, the abundance fitness is -0.628 ± 0.16.

As for I10Q, the abundance fitness is -0.655 ± 0.15.

On to T59L, for which the abundance fitness is -0.149 ± 0.053.

Take T59I: the abundance fitness is -0.243 ± 0.088.

For T59A, the abundance fitness came out at 0.109 ± 0.046.

With T59G, the abundance fitness was -0.019 ± 0.046.

As for T59D, the abundance fitness is -0.007 ± 0.1.

Consider D30A, for which the abundance fitness is -0.165 ± 0.06.

For D30H, the abundance fitness stood at 0.094 ± 0.14.

With D30T, the abundance fitness is -0.193 ± 0.13.

D30E: the abundance fitness is -0.013 ± 0.077.

Turning to D30L, the abundance fitness was -0.097 ± 0.047.

In the case of E31Q, the abundance fitness was -0.38 ± 0.12.

On to E31N, for which the abundance fitness is -0.327 ± 0.22.

Consider E31Y, for which the abundance fitness was -0.477 ± 0.081.

With E31M, the abundance fitness is -0.693 ± 0.13.

As to E31T, the abundance fitness was -0.465 ± 0.096.

For the variant E31I, the abundance fitness was -0.581 ± 0.12.

As to E31G, the abundance fitness is -0.469 ± 0.048.

As to E31D, the abundance fitness was -0.161 ± 0.12.

Turning to E31A, the abundance fitness was -0.252 ± 0.054.

For the variant E31W, the abundance fitness was -0.463 ± 0.1.

As for E31C, the abundance fitness was -0.832 ± 0.21.

Take Q66W: the abundance fitness was -0.801 ± 0.13.

With M46Y, the abundance fitness is -0.707 ± 0.13.

Consider M46E, for which the abundance fitness is -0.831 ± 0.16.

For M46G, the abundance fitness was -0.949 ± 0.089.

Regarding M46P, the abundance fitness was -0.542 ± 0.11.

For the variant Y74M, the abundance fitness was -0.103 ± 0.072.

As for Y74R, the abundance fitness was -0.031 ± 0.045.

Take Y74L: the abundance fitness came out at 0.027 ± 0.043.

On to Y74H, for which the abundance fitness amounted to 0.027 ± 0.09.

Y74N: the abundance fitness was 0.139 ± 0.11.

In the case of Y74I, the abundance fitness is -0.1 ± 0.12.

Regarding R12Q, the abundance fitness is -0.152 ± 0.091.

For the variant R12G, the abundance fitness is -0.17 ± 0.034.

As to R12D, the abundance fitness was -0.666 ± 0.26.

For R12P, the abundance fitness was -0.964 ± 0.18.

Take R12C: the abundance fitness is -0.361 ± 0.15.

Consider R12A, for which the abundance fitness was -0.707 ± 0.092.

Take R12E: the abundance fitness was -0.316 ± 0.07.

With R12T, the abundance fitness was -0.746 ± 0.13.

In the case of K26L, the abundance fitness is -0.438 ± 0.052.

Take K26Q: the abundance fitness is -0.249 ± 0.07.

With K26Y, the abundance fitness was -0.658 ± 0.3.

In the case of K26N, the abundance fitness was -0.314 ± 0.16.

In the case of K26R, the abundance fitness was -0.178 ± 0.038.

On to K26A, for which the abundance fitness is -0.371 ± 0.078.

In the case of R6E, the abundance fitness was -0.141 ± 0.084.

Consider R6T, for which the abundance fitness was -0.549 ± 0.13.

Turning to R6V, the abundance fitness is -0.416 ± 0.07.

On to R6P, for which the abundance fitness is -0.685 ± 0.13.

As to R6F, the abundance fitness is -0.538 ± 0.15.

In the case of R6M, the abundance fitness is -0.107 ± 0.082.

S73W: the abundance fitness is -0.302 ± 0.077.

Consider S73I, for which the abundance fitness is -0.628 ± 0.18.

Turning to S73C, the abundance fitness was -0.257 ± 0.09.

Take S73M: the abundance fitness was -0.266 ± 0.095.

In the case of S73K, the abundance fitness was -0.289 ± 0.11.

As for S73L, the abundance fitness was -0.112 ± 0.046.

Regarding S73D, the abundance fitness is -0.338 ± 0.13.

With P43V, the abundance fitness was -0.096 ± 0.053.

For P43S, the abundance fitness is -0.061 ± 0.046.

Take Y33S: the abundance fitness was -0.376 ± 0.053.

For the variant Y33F, the abundance fitness was -0.277 ± 0.11.

In the case of Y33K, the abundance fitness is -0.342 ± 0.15.

Turning to S71H, the abundance fitness is -0.109 ± 0.12.

With S71D, the abundance fitness is -0.501 ± 0.15.

For S71R, the abundance fitness was -0.529 ± 0.058.

Take S71M: the abundance fitness is -0.526 ± 0.12.

As to S71W, the abundance fitness was -0.874 ± 0.12.

With S71L, the abundance fitness was -0.816 ± 0.1.

On to S71I, for which the abundance fitness was -0.813 ± 0.27.

As to S71G, the abundance fitness is -0.479 ± 0.063.

With S71P, the abundance fitness is -0.774 ± 0.14.

For N42L, the abundance fitness was -0.337 ± 0.061.

With N42C, the abundance fitness was -0.616 ± 0.1.

With N42D, the abundance fitness is -0.221 ± 0.099.

Consider N42E, for which the abundance fitness is -0.337 ± 0.085.

In the case of N42Y, the abundance fitness is -0.896 ± 0.36.

N42Q: the abundance fitness was -0.488 ± 0.11.

With H5I, the abundance fitness is -0.057 ± 0.13.

Consider H5W, for which the abundance fitness was -0.381 ± 0.071.

On to H5D, for which the abundance fitness is -0.751 ± 0.24.

Take H5T: the abundance fitness was -0.602 ± 0.086.

As for H5N, the abundance fitness is -0.157 ± 0.12.

For the variant N15F, the abundance fitness was -0.997 ± 0.3.

Turning to N15M, the abundance fitness is -0.847 ± 0.17.

Turning to N15Y, the abundance fitness is -0.555 ± 0.2.

In the case of N15P, the abundance fitness was -0.806 ± 0.14.

L63P: the abundance fitness was -0.438 ± 0.075.

Consider K45G, for which the abundance fitness is -0.768 ± 0.072.

On to K45A, for which the abundance fitness was -0.615 ± 0.083.

Turning to K45R, the abundance fitness was -0.317 ± 0.053.

For the variant K45D, the abundance fitness was -1 ± 0.27.

Regarding K45S, the abundance fitness was -0.273 ± 0.07.

As for F50L, the abundance fitness was determined as 0.182 ± 0.046.

Consider F50Y, for which the abundance fitness amounted to 0.015 ± 0.26.

For F50Q, the abundance fitness is -0.871 ± 0.18.

Turning to V27R, the abundance fitness was -0.909 ± 0.096.

As for V27H, the abundance fitness was -0.764 ± 0.26.

On to V27S, for which the abundance fitness is -0.583 ± 0.074.

V27T: the abundance fitness is -0.675 ± 0.1.

Consider L23N, for which the abundance fitness was -1.06 ± 0.38.

Turning to L23K, the abundance fitness was -0.645 ± 0.15.

With L23G, the abundance fitness was -0.911 ± 0.09.

Consider L23V, for which the abundance fitness is -0.611 ± 0.074.

As to L23F, the abundance fitness is -0.737 ± 0.24.

With L23T, the abundance fitness was -0.943 ± 0.16.

Consider L23Y, for which the abundance fitness was -0.586 ± 0.31.

As to K48T, the abundance fitness is -0.635 ± 0.12.

K48Y: the abundance fitness is -1.05 ± 0.3.

Consider K48N, for which the abundance fitness is -0.802 ± 0.22.

K48A: the abundance fitness is -0.745 ± 0.081.

With K48W, the abundance fitness was -0.35 ± 0.088.

Regarding K48V, the abundance fitness was -0.469 ± 0.063.

L19E: the abundance fitness was -0.882 ± 0.23.

With L19R, the abundance fitness was -0.906 ± 0.12.

Take L19M: the abundance fitness was -0.787 ± 0.12.

In the case of L79M, the abundance fitness was -0.668 ± 0.19.

As for D3N, the abundance fitness is -0.599 ± 0.12.

Take D3Q: the abundance fitness was -0.929 ± 0.19.

D3S: the abundance fitness is -0.592 ± 0.11.
